The source of these data is patent US20020102256A1 (ZymoGenetics, published 2002).

What all share (assay): cell-based or functional assay
Test [1] has as its target T1, Activated human C1s (Calbiochem-Novabiochem Corporation) (human) (UniProt P09871).
T1 sequence (looked up): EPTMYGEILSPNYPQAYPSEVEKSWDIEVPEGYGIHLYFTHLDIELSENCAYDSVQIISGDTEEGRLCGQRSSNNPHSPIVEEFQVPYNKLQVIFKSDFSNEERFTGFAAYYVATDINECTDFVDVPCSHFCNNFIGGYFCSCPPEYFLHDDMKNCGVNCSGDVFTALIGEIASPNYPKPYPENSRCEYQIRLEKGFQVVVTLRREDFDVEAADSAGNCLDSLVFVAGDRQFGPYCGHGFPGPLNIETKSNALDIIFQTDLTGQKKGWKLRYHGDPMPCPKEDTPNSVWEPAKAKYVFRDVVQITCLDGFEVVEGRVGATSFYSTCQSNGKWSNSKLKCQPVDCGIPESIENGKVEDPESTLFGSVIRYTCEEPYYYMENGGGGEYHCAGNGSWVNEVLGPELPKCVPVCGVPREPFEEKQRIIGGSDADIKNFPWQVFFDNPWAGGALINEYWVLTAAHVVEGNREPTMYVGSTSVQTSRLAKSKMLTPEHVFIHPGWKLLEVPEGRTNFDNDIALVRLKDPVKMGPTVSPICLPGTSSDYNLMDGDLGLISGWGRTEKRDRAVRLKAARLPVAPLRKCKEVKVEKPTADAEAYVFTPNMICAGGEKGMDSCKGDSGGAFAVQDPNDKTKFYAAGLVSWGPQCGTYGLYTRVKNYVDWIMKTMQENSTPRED

Test [2] addresses T2, Activated human C1s (Calbiochem-Novabiochem Corporation) (human, UniProt P09871 16-688).
T2 sequence (looked up): T1 sequence (looked up)

For test [3], the target named is T2, Activated human C1s …. This is another data set of the same source.

Where “and” joins values, the source holds several entries; their conditions need not be identical. Equal values may be shown once.

B1: Recombinant BD001 expressed in Baculovirus (protein)
chain: AKKKLPKCQKQEDCGSWDLKCNNVTKKCECRNQVCGRGCPKERYQRDKYGCRKCLCKGCDGFKCRLGCTYGFKTDKKGCEAFCTCNTKETACVNIWCTDPYKCNPESGRCEDPNEEYEYDYE
modifications: glycosylation at Asn23 (fucosylated complex-type core); sulfation of at least one of Tyr117, Tyr119 and Tyr121 (tyrosine sulfation at the C-terminus on three tyrosine residues)
Turning to B1, in test [1], the IC50 (nM), C1s enzyme assay amounted to 2.5 nM and the IC50, C1s enzyme assay (decrease in Vmax of Pefa-C1E cleavage) was 5.2 nM.

B2: BD001 protein isolated from Pichia methanolica (protein)
chain: B1 chain
modifications: lacks tyrosine sulfation at the C-terminus and N-glycosylation
Consider B2, for which, in test [1], the IC50, C1s enzyme assay (decrease in Vmax of Pefa-C1E cleavage) was determined as 44 nM; the fold decrease in activity in bioassays compared with the baculovirus-expressed material is 10 fold; the fold less active than the baculovirus material, C1s enzyme assay was 8 fold.

B3: Deglycosylated recombinant BD001 (protein)
chain: B1 chain
modifications: glycan at Asn23 removed with PNGase F; sulfation of at least one of Tyr117, Tyr119 and Tyr121
B3 yielded an IC50 (nM), C1s enzyme assay in test [1] of 2.86 nM.

B4: Desulfated recombinant BD001 (protein)
chain: B1 chain
modifications: sulfate groups removed from Tyr117/Tyr119/Tyr121 with aryl sulfatase; glycosylation at Asn23
In test [1], B4 had an IC50 (nM), C1s enzyme assay of 36 nM.

B5: BD001 isolated from tissue (protein)
chain: B1 chain
modifications: glycosylation at Asn23 (fucosylated complex-type core); sulfation of at least one of Tyr117, Tyr119 and Tyr121
For B5, the IC50 (nM), C1s enzyme assay in test [1] was 4 nM and 4.7 nM.

B6: Deglycosylated and cleaved recombinant BD001 (other)
chain 1: AKKKLPKCQKQEDCGSWDLKCNNVTKKCECRNQVCGRGCPKERYQRDKYGCRKCLCKGCDGFKCR
chain 2: LGCTYGFKTDKKGCEAFCTCNTKETACVNIWCTDPYKCNPESGRCEDPNEEYEYDYE
modifications: sulfation of at least one of Tyr117, Tyr119 and Tyr121; glycan at Asn23 removed with PNGase F
For the molecule B6, the “IC50 (nM), C1s enzyme assay” value in test [2] is 21.9 nM.

B7: Desulfated and cleaved recombinant BD001 (other)
chain 1: B6 chain 1
chain 2: B6 chain 2
modifications: sulfate groups removed from Tyr117/Tyr119/Tyr121 with aryl sulfatase; glycosylation at Asn23 (fucosylated complex-type core)
In the case of B7, the “IC50 (nM), C1s enzyme assay” value in test [2] was 558 nM.

B8: Cleaved recombinant BD001 (other)
chain 1: B6 chain 1
chain 2: B6 chain 2
modifications: sulfation of at least one of Tyr117, Tyr119 and Tyr121; glycosylation at Asn23 (fucosylated complex-type core)
Take B8: in test [2], the “IC50 (nM), C1s enzyme assay” value is 19.8 nM. In test [3], the “fold higher IC50 than the matched, intact form, C1s enzyme assay” value is approximately 10 fold.
